The values below come from doi:10.1101/2021.05.11.443575.

Assay [1] has as its target FLAG-PfDdi1^D262N (recombinant full length catalytically inactive PfDdi1 with N-terminal FLAG tag) (P. falciparum). Kind of assay: native MS.
For assay [2], the target named is FLAG-PfDdi1 (recombinant full length PfDdi1 with N-terminal FLAG tag) (P. falciparum). Kind of assay: native MS.

As a reminder, the stoichiometry N is a count of units in the complex or per binding partner. Regarding “FLAG-PfDdi1^D262N (recombinant full length catalytically inactive PfDdi1 with N-terminal FLAG tag) (enzyme)”, in assay [1], the stoichiometry N came to 2. On to “FLAG-PfDdi1 (recombinant full length PfDdi1 with N-terminal FLAG tag) (enzyme)”, for which, in assay [2], the stoichiometry N was 2.
